Several values for one entry are separate records, joined by “and”; a condition that tells them apart may be missing. Equal entries are not always repeated.

The Kd is the constant that tells how readily two partners part at equilibrium.

Test [1] has as its target D3H44 light chain Q124E_Q160E_T180E_C214S. Kind of test: LCCA, SPR tag readout, L1:L2 DNA 1:3 normalized to 1:1; competitor m20.
Test [2] concerns the target D3H44 light chain Q38E_Q124E_Q160E_T180E. The description is as above.
Test [3] addresses D3H44 light chain P44F_S131K. Description: LCCA, SPR tag readout, L1:L2 DNA 1:3 normalized to 1:1; competitor m22.
In test [4] the target is D3H44 light chain P44F_S131K. Description: LCCA, SPR tag readout, L1:L2 DNA 1:9 normalized to 1:1; competitor m22.
Test [5] deals with D3H44 light chain Q124E_Q160E_T180E_C214S. Description: LCCA, SPR tag readout, L1:L2 DNA 1:9 normalized to 1:1; competitor m20.
Test [6] has as its target D3H44 light chain P44F_S131K. Description: LCCA, SPR tag readout, L1:L2 DNA 1:3 normalized to 1:1; competitor m19.
The target of test [7] is D3H44 light chain V133G_Q160E_S176D_T180E. Description: LCCA (co-expression, SPR tag read-out), L1:L2 DNA 1:9 normalised to 1:1; competing light chain m8.
Test [8] deals with D3H44 light chain Q124E_V133G_S176D_T178E_T180E. Described as above.
The target of test [9] is D3H44 light chain Q124E_V133G_S176D_T178D_T180E. Kind of test: LCCA (co-expression, SPR tag read-out), L1:L2 DNA 1:3 normalised to 1:1; competing light chain m8.
The target of test [10] is D3H44 light chain V133G_Q160E_S176D_T180E. The test is described as above.
For test [11], the target named is D3H44 light chain V133G_S176D_T178E_T180E. Described as above.
The target of test [12] is D3H44 light chain V133G_S176D_T178D_T180E. Described as above.
Test [13] deals with D3H44 light chain Q124E_V133G_S176D_T178E_T180E. The description is as above.
The target in test [14] is D3H44 light chain Q124E_V133G_S176D_T178D_T180E. Description: LCCA (co-expression, SPR tag read-out), L1:L2 DNA 1:3 normalised to 1:1; competing light chain m7.
The target of test [15] is D3H44 light chain V133G_S176D_T178E_T180E. The description is as above.
The target of test [16] is D3H44 light chain V133G_S176D_T178D_T180E. The description is as above.
Test [17] has as its target D3H44 light chain Q124E_V133G_S176D_T178E_T180E. The description is as above.
Test [18] concerns the target D3H44 light chain Q38E_Q124E_Q160E_T180E. Description: LCCA, SPR tag readout, L1:L2 DNA 1:3 normalized to 1:1; competitor m26.
The target of test [19] is D3H44 light chain Q38R_Q124R_Q160K_T178R. Kind of test: LCCA, SPR tag readout, L1:L2 DNA 1:3 normalized to 1:1; competitor m19.
In test [20] the target is tissue factor (TF) antigen (UniProt P13726). Kind of test: SPR (ProteOn), Fab captured via anti-penta-His, TF injected, 1:1 fit; reference wild-type D3H44 Fab; batch C (+).
Test [21] shares this target. Description: SPR (ProteOn), Fab captured via anti-penta-His, TF injected, 1:1 fit; batch C (+).
The target in test [22] is tissue factor (TF) antigen (human (from the antibody's name 'anti-human tissue factor'; not stated for the antigen lot in the assay)) (UniProt P13726). Kind of test: SPR (ProteOn XPR36): Fab captured via His tag on anti-penta His surface, TF injected, 1:1 fit.
Test [23] shares this target. Kind of test: SPR (ProteOn XPR36), Fab captured on anti-penta His, TF analyte; against wild-type D3H44 Fab.
Test [24] concerns the target tissue factor (TF) antigen (UniProt P13726). Kind of test: SPR (ProteOn XPR36), Fab captured on anti-penta-His surface, TF injected as analyte, 1:1 fit.
Test [25] shares this target. Kind of test: SPR (ProteOn XPR36), Fab captured on anti-penta-His surface, TF injected as analyte, 1:1 fit; reference wild-type D3H44 Fab.
For test [26] the target is unchanged. Kind of test: SPR (ProteOn XPR36), Fab captured on anti-penta-His surface, TF injected as analyte, 1:1 fit; marked * (estimated from a Fab that differs only in the L chain tag).
The target is the same in test [27]. Kind of test: SPR (ProteOn XPR36), Fab captured on anti-penta-His surface, TF injected as analyte, 1:1 fit; marked * (estimated from a Fab that differs only in the L chain tag); reference wild-type D3H44 Fab.
Test [28] has as its target D3H44 Fab heavy chain L124W_L143F_K145T_Q179E, ABD2-His6 tagged. Description: LCCA, SPR of light chain tags; L1:L2 DNA 1:3 normalized to 1:1; competing light chain m14.
For test [29], the target named is D3H44 Fab heavy chain L143E_K145T_Q179E, ABD2-His6 tagged. Description: LCCA, SPR of light chain tags; L1:L2 DNA 1:3 normalized to 1:1; competing light chain m19.
For test [30], the target named is D3H44 Fab heavy chain S186R, ABD2-His6 tagged. Described as above.
The target of test [31] is D3H44 Fab heavy chain L143E_K145T_Q179D, ABD2-His6 tagged. The description is as above.
For test [32], the target named is D3H44 Fab heavy chain S186K, ABD2-His6 tagged. Described as above.
For test [33], the target named is tissue factor (TF) antigen (UniProt P13726). Description: SPR (ProteOn XPR36), Fab captured on anti-penta His, TF injected at 0.74-60 nM, 1:1 model; median.

Regarding D3H44 Fab heavy chain L45P_K145T_Q179E, the H1L1:H1L2 normalized median ratio is 4% in test [1]; 6% in test [2]; 96% in [3]; 93% in test [4]; 7% in [5]; 94% in test [6]. Also, the H2L2:H2L1 normalized median ratio in test [1] amounted to 4%; in test [2] it was 6%; in test [3], 96%; in [4], 93%; in test [5] it was 7%; in test [6], 94%. Moreover, the H1L1:H1L2 normalized median scalar value ln(r1/f1) in test [3] was 3.19; in test [4], 2.54; in test [6], 2.83.

Regarding D3H44 Fab heavy chain L124E_K145T_Q179E, the H1L1:H1L2 normalized median ratio in test [7] was 5 parts of 100; in [8] it was 3 parts of 100; in [9], 4 parts of 100; in test [10], 4 parts of 100; in test [11] it was 3 parts of 100; in test [12], 4 parts of 100. Also, the H1L1:H1L2 normalized median ratio is 3 parts of 100 in test [13]; 4 parts of 100 in test [14]; 5 parts of 100 in test [15]; 5 parts of 100 in test [16]; 5 parts of 100 in test [17].

In the case of D3H44 Fab heavy chain L124R_Q179K, the H2L2:H2L1 normalized median ratio is 94 parts of 100 in test [7]; 91 parts of 100 in [8]; 91 parts of 100 in [10]; 92 parts of 100 in test [11]; 92 parts of 100 in [13]; 93 parts of 100 in [15]. Further, the H2L2:H2L1 normalized median ratio in test [17] was 93 parts of 100.

Consider D3H44 Fab heavy chain L124R_S186K, for which the H2L2:H2L1 normalized median ratio was 91 parts of 100 in test [9], 90 parts of 100 in [12], 92 parts of 100 in test [14] and 91 parts of 100 in test [16].

For “D3H44 Fab heavy chain Q39E_L143E_K145T_Q179E”, the results for the H1L1:H1L2 normalized median ratio in test [18] and in [19] were 3% and 97%, respectively. In test [19], the H1L1:H1L2 normalized median scalar value ln(r1/f1) is 3.58 and 1.58.

In test [20], “D3H44 Fab heterodimer (H1L1) of LCCA Set # 9851: H1 S186K, L1 Q124E_T178E_T180E” came in with a change in median KD compared to wild type, -(log(KD design)-log(KD wt)) of 0.02. In [21], this substance displayed a Kd of 0.15 nM.

The substance “D3H44 Fab heterodimer (H1L1) of LCCA Sets # 9829, 9830: H1 S186K, L1 Q124E_Q160E_T178E” returned a change in median KD compared to wild type, -(log(KD design)-log(KD wt)) in test [20] of 0.41. In addition, the Kd in test [21] worked out at 0.06 nM.

Take “D3H44 Fab heterodimer (H1L1) of LCCA Sets # 9979, 9983: H1 Q179K, L1 S131E”: the change in median KD compared to wild type, -(log(KD design)-log(KD wt)) in [20] was 0.05. In test [21], this substance came in with a Kd of 0.14 nM.

As to “D3H44 Fab heterodimer, H1 A139C_L143E_K145T_Q179E / L1 F116C_Q124R_T178R (H1L1 Fab of LCCA set 9049)”, the Kd in test [22] is 0.16 nM. For the same substance, the Change in median values of KD of h1l1 Fab heterodimer compared to wild type (-(log(KD design)-log(KD wt))) in test [23] is -0.01.

In turn, “D3H44 Fab heterodimer, H1 L124E_L143E_K145T / L1 Q124K_V133G_Q160K_S176R (H1L1 Fab of LCCA set 9277)” showed a Kd in test [22] of 0.2 nM. The Change in median values of KD of h1l1 Fab heterodimer compared to wild type (-(log(KD design)-log(KD wt))) in [23] was -0.12.

In the case of “D3H44 H1L1 Fab heterodimer, H1 L124E_L143E_K145M, L1 Q124K_V133G_Q160K_S176R”, the Kd in test [24] was 0.28 nM. Also, in [25], the Change in median KD of h1l1 Fab heterodimer compared to wild type (-(log(KD design)-log(KD wt))) (log(KD) difference) is -0.26.

With “D3H44 H1L1 Fab heterodimer, H1 L124E_L143E_K145T, L1 Q124K_V133G_Q160K_S176R”, in test [24], the equilibrium dissociation constant (Kd) came to 0.2 nM. Further, in test [25], the Change in median KD of h1l1 Fab heterodimer compared to wild type (-(log(KD design)-log(KD wt))) (log(KD) difference) was -0.12.

On to “D3H44 H1L1 Fab heterodimer, H1 L124E_L143E_K145T, L1 Q124K_V133G_S176R_T178R”, for which, in test [26], the Kd was 0.18 nM. In test [27], the Change in median KD of h1l1 Fab heterodimer compared to wild type (-(log(KD design)-log(KD wt))) (log(KD) difference) is -0.07.

Take “D3H44 light chain Q124E_V133W_S176T_T178L_T180E, HA or FLAG tagged”: the H2L2:H2L1 normalized median ratio in test [28] amounted to 31%.

For “D3H44 light chain Q124R_T178K, HA or FLAG tagged”, the H1L1:H1L2 normalized median ratio in test [29] and in test [31] was 84% each time. In addition, the H1L1:H1L2 normalized median scalar value ln(r1/f1) amounted to 1.69 in test [29] and 1.63 in test [31]. The H2L2:H2L1 normalized median ratio in [30] and in test [32] was 3% each time.

As for “wild-type D3H44 Fab heterodimer where the light chain contains a FLAG tag”, the Kd in [33] stood at 0.157 nM.

The values are drawn from patent US11306156.
